Source: patent US20220332813A1 (UNIVERSITY OF MARYLAND BALTIMORE, published 2022)

Tests used:
[1] = biological target: T1, human recombinant tau (2N4R) (human, UniProt P10636-8 1-441); assay: SPR, SorLA fragment 82-181 immobilised, increasing tau
T1 construct: Radio-iodinated in the cell assays; also called monomeric tau; full-length tau (2N4R)

[2] = biological target: T2, hyperphosphorylated 2N4R tau produced by Sf9 cells (human, UniProt P10636-8 1-441, hyperphosphorylated (produced in Sf9 insect cells, intermediate phosphorylation state); sites not stated); assay: SPR equilibrium (KD eq, Req fit)
T2 construct: His-tagged; also called SF9 tau; 2N4R SF9
T2 sequence (P10636 other isoform, or with tags, fused parts or gaps limits assumed): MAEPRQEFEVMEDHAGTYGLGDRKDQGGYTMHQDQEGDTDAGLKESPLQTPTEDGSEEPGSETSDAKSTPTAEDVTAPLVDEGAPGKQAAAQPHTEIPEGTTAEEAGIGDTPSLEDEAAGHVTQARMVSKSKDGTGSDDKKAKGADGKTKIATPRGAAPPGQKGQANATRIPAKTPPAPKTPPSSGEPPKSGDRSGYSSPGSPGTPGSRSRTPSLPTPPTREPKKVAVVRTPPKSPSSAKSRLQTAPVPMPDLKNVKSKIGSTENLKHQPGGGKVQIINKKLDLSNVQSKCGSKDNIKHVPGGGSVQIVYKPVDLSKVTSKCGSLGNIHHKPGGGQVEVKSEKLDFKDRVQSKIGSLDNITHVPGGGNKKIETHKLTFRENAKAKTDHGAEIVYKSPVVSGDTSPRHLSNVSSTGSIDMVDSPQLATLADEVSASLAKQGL

[3] = biological target: T2, hyperphosphorylated 2N4R tau produced …; assay: SPR, from kinetic parameters of the 1:1 fit
[4] = biological target: T1, human recombinant tau (2N4R); assay: SPR, from kinetic parameters of the 1:1 fit
[5] = biological target: T2, hyperphosphorylated 2N4R tau produced …; assay: SPR single cycle, VPS10P domain immobilised, 1:1 fit
[6] = biological target: T1, human recombinant tau (2N4R); assay: as above

T1 sequence (P10636 other isoform, or with tags, fused parts or gaps limits assumed): as above

Kd [1] [µM] | Kd [2] [µM] | Kd [3] [µM] | Kd [4] [µM] | koff [5] [s⁻¹] | kon [5] [M⁻¹ s⁻¹] | koff [6] [s⁻¹] | kon [6] [M⁻¹ s⁻¹] | Binder
0.04 | – | – | – | – | – | – | – | commercially available fragment of SorLA comprising residues 82-181 (receptor, The range may be a misprint for 82-753; also called SorLA fragment) SAALQPEPIKVYGQVSLNDSHNQMVVHWAGEKSNVIVALARDSLALARPKSSDVYVSYDYGKSFKKISDKLNFGLGNRSEAVIAQFYHSPADNKRYIFAD
– | 0.095 | 0.078 | 0.015 | 0.0061 | 85000 | 0.41 | 5e+07 | recombinant human SORLA VPS10P domain (residues 82-753) (receptor, also called SORL1 VPS10 domain; R&D Systems 9880-LA) SAALQPEPIKVYGQVSLNDSHNQMVVHWAGEKSNVIVALARDSLALARPKSSDVYVSYDYGKSFKKISDKLNFGLGNRSEAVIAQFYHSPADNKRYIFADAYAQYLWITFDFCNTLQGFSIPFRAADLLLHSKASNLLLGFDRSHPNKQLWKSDDFGQTWIMIQEHVKSFSWGIDPYDKPNTIYIERHEPSGYSTVFRSTDFFQSRENQEVILEEVRDFQLRDKYMFATKVVHLLGSEQQSSVQLWVSFGRKPMRAAQFVTRHPINEYYIADASEDQVFVCVSHSNNRTNLYISEAEGLKFSLSLENVLYYSPGGAGSDTLVRYFANEPFADFHRVEGLQGVYIATLINGSMNEENMRSVITFDKGGTWEFLQAPAFTGYGEKINCELSQGCSLHLAQRLSQLLNLQLRRMPILSKESAPGLIIATGSVGKNLASKTNVYISSSAGARWREALPGPHYYTWGDHGGIITAIAQGMETNELKYSTNEGETWKTFIFSEKPVFVYGLLTEPGEKSTVFTIFGSNKENVHSWLILQVNATDALGVPCTENDYKLWSPSDERGNECLLGHKTVFKRRTPHATCFNGEDFDRPVVVSNCSCTREDYECDFGFKMSEDLSLEVCVPDPEFSGKSYSPPVPCPVGSTYRRTRGYRKISGDTCSGGDVEARLEGELVPCP
